Measured values taken from US20140308201A1 (Novartis, published 2014).

T1: Human FGFR2 IIIb D1-3 (human)
T1 construct: Extracellular domains D1-3 with C-terminal tag, made in HEK293T; also called recombinant human FGFR2 IIIb; hFGFR2
T1 chain: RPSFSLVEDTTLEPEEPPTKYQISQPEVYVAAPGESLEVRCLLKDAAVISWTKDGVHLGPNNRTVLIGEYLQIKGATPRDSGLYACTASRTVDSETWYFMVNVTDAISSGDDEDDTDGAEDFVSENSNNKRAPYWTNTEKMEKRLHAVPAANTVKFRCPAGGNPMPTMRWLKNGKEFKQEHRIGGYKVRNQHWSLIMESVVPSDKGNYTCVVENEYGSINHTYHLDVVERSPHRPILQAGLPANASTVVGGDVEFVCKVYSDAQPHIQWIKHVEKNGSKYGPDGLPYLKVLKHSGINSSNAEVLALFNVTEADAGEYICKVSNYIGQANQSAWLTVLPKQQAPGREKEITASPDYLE

T2: Mouse FGFR2 IIIb D1-3 (mouse)
T2 chain: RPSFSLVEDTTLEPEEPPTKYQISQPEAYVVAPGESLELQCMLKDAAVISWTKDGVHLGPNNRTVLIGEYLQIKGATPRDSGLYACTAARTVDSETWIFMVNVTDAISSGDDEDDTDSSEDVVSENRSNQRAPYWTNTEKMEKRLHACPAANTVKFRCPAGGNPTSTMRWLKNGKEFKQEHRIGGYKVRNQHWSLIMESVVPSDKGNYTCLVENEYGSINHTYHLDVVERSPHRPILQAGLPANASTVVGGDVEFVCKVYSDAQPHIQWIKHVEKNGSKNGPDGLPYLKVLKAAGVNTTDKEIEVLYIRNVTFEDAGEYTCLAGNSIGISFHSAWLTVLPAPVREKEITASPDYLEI

T3: Rat FGFR2 IIIb D1-3 (rat)
T3 chain: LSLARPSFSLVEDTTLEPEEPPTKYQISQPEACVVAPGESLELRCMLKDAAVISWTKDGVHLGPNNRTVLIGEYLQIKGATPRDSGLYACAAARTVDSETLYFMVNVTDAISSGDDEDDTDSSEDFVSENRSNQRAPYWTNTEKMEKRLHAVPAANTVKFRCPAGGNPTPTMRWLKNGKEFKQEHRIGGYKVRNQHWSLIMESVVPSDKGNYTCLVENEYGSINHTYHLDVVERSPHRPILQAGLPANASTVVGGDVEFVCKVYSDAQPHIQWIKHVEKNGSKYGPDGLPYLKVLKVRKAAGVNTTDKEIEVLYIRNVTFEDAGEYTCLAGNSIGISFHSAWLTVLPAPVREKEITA

T4: Cynomolgus monkey FGFR2 IIIb D1-3 (cynomolgus monkey)
T4 construct: also called Cyno FGFR2 IIIb
T4 chain: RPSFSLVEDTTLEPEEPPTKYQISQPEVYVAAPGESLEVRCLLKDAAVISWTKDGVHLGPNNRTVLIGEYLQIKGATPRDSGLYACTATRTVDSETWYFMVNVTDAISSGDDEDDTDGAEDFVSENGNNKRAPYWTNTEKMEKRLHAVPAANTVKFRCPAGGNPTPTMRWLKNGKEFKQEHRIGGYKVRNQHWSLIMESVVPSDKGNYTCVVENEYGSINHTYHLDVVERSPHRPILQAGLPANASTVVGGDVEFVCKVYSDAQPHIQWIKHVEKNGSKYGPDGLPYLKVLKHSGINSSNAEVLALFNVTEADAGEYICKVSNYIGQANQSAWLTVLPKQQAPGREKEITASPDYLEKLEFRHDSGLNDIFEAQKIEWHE

T5: FGFR2 D2-D3 Construct (human)
T5 construct: E. coli made, not glycosylated; also called E. Coli. derived FGFR2D2-D3 protein
T5 chain: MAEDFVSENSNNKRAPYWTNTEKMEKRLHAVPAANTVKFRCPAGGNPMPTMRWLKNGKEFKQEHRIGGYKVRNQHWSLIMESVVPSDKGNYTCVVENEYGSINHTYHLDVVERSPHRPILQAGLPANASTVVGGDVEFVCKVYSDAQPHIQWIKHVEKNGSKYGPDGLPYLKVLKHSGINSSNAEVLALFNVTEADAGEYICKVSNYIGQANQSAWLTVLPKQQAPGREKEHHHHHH

B1: mAb11725 (antibody, human IgG1, lambda, V domains shown)
VH: QVQLLESGGGLVQPGGSLRLSCAASGFTFNTYWLHWVRQAPGKGLEWVSVISSDSSSTYYADSVKGRFTISRDNSKNTLYLQMNSLRAEDTAVYYCARDSRLDYWGQGTLVTVSS
VL: DIELTQPPSVSVSPGQTASITCSGDSIGDTYVDWYQQKPGQAPVLVIYDDIDRPSGIPERFSGSNSGNTATLTISGTQAEDEADYYCYVYAWTGTSNVFGGGTKLTVLG
notes: HuCAL human IgG1
B2: mAb12422 (antibody, human IgG1, kappa, V domains shown)
VH: QVQLVQSGAEVKKPGSSVKVSCKASGGTFSSYAISWVRQAPGQGLEWMGYISPYMGETHYAQKFQGRVTITADESTSTAYMELSSLRSEDTAVYYCARESYEYFDIWGQGTLVTVSS
VL: DIQMTQSPSSLSASVGDRVTITCRASQSISNDLAWYQQKPGKAPKLLIYATSILQSGVPSRFSGSGSGTDFTLTISSLQPEDFATYYCLQYYDYSYTFGQGTKVEIKR
notes: HuCAL human IgG1
B3: mAb20562 (antibody, human IgG1, kappa, V domains shown)
VH: EVQLLESGGGLVQPGGSLRLSCAASGFTFSDYAMSWVRQAPGKGLEWVSVIEGDASYTHYADSVRGRFTISRDNSKNTLYLQMNSLRAEDTAVYYCARERTYSSAFDYWGQGTLVTVSS
VL: DIQMTQSPSSLSASVGDRVTITCRASQDISSDLNWYQQKPGKAPKLLIYDASNLQSGVPSRFSGSGSGTDFTLTISSLQPEDFATYYCQQHYSPSHTFGQGTKVEIKR
notes: human IgG1
B4: mAb12439 (antibody, human IgG1, kappa, V domains shown)
VH: QVQLVQSGAEVKKPGASVKVSCKASGYTFTSYDISWVRQAPGQGLEWMGWINPYNGGTNYAQKFQGRVTMTRDTSISTAYMELSRLRSEDTAVYYCAREGSGMIVYPGWSYAFDYWGQGTLVTVSS
VL: DIQMTQSPSSLSASVGDRVTITCRASQDISNDLGWYQQKPGKAPKLLIYAASSLQSGVPSRFSGSGSGTDFTLTISSLQPEDFATYYCQQHYHTPNTFGQGTKVEIKR
notes: HuCAL human IgG1
B5: mAb12947 (antibody, human IgG1, kappa, V domains shown)
VH: QVQLVQSGAEVKKPGSSVKVSCKASGGTFSSYAISWVRQAPGQGLEWMGSIQPTAGPARYAQKFQGRVTITADESTSTAYMELSSLRSEDTAVYYCARASLYSVATGSYWKVYHPFDSWGQGTLVTVSS
VL: DIQMTQSPSSLSASVGDRVTITCRASQDIYSYLAWYQQKPGKAPKLLIYDASSLQSGVPSRFSGSGSGTDFTLTISSLQPEDFATYYCQQADQYPVTFGQGTKVEIKR
notes: HuCAL human IgG1
B6: mAb20811 (antibody, human IgG1, kappa, V domains shown)
VH: QVQLLESGGGLVQPGGSLRLSCAASGFTFSDYAMSWVRQAPGKGLEWVSTIEGDSNYIEYADSVKGRFTISRDNSKNTLYLQMNSLRAEDTAVYYCARERTYSSAFDYWGQGTLVTVSS
VL: DIQMTQSPSSLSASVGDRVTITCRASQDISSDLNWYQQKPGKAPKLLIYDASNLQSGVPSRFSGSGSGTDFTLTISSLQPEDFATYYCHQWYSTLYTFGQGTKVEIKR
notes: IgG
B7: mAb10164 (antibody, human IgG1, lambda, V domains shown)
VH: QVQLVESGGGLVKPGGSLRLSCAASGFTFSSYALSWVRQAPGKGLEWVGRIRSKIDGGTTDYAAPVKGRFTISRDDSKNTLYLQMNSLKTEDTAVYYCARDRSPSDSSAFAIWGQGTLVTVSS
VL: DIELTQPPSVSVSPGQTASITCSGDNLGSQYVDWYQQKPGQAPVLVIYDDNDRPSGIPERFSGSNSGNTATLTISGTQAEDEADYYCQSWDSLSVVFGGGTKLTVLG
notes: HuCAL human IgG1
B8: mAb20437 (antibody, human IgG1, lambda, V domains shown)
VH: EVQLVESGGGLVKPGGSLRLSCAASGFTFSSYALSWVRQAPGKGLEWVGRIRSRIEGGTTDYAAPVRGRFTISRDDSKNTLYLQMNSLKTEDTAVYYCARDRSPSDSSAFAIWGQGTLVTVSS
VL: SYELTQPLSVSVALGQTARITCSGDNLGSQYVDWYQQKPGQAPVLVIYDDNDRPSGIPERFSGSNSGNTATLTISRAQAGDEADYYCQSWDSLSVVFGGGTKLTVLG
notes: human IgG1

How the values were obtained:
Human FGFR2 IIIb D1-3 [1] = target: T1, Human FGFR2 IIIb D1-3; assay: SPR Biacore, method as Example 2
Protocol: (§1) For kinetic measurements, experiments were performed in which the antibodies were immobilized to the sensor chip surface and the ability of the FGFR proteins described above listed in Table 1 to bind in free solution was determined Briefly, 50 μg/ml of anti-human Fc antibody at pH 4.75 was immobilized on a CM5 sensor chip through amine coupling at flow rate of 10 μl/minute on all four flow cells to reach 6000 RUs. […] Subsequently, 0.078-100 nM of FGFR receptors, diluted in a 2-fold series, were injected at a flow rate of 80 μl/min for 7 min over both reference and test flow cells. Dissociation of the binding was followed for 10 min using HBS-EP⁺ supplemented with 0.5 mg/ml of BSA and 10 μg/ml heparin as running buffer. After each injection cycle, the chip surface was regenerated with 10 mM glycine, pH 2.0 at 60 μl/min for 70 s.

Mouse FGFR2 IIIb D1-3 = target: T2, Mouse FGFR2 IIIb D1-3; assay: SPR Biacore, IgG captured via anti-human Fc, soluble FGFR as analyte
Protocol: (§2) Affinity of the antibodies to FGFR2 species orthologues was determined using Biacore technology using a Biacore T100 instrument (GE Systems) and with CM5 sensor chips.
as §1

Human FGFR2 IIIb D1-3 [2] = target: T1, Human FGFR2 IIIb D1-3; assay: as above
Protocol: as §2, §1

Rat FGFR2 IIIb D1-3 = target: T3, Rat FGFR2 IIIb D1-3; assay: as above
Protocol: as §2, §1

[3] = target: T4, Cynomolgus monkey FGFR2 IIIb D1-3; assay: as above
Protocol: as §2, §1

Human FGFR4 ECD = target: T6, Human FGFR4 ECD (human, UniProt P22455 22-369); assay: screening of panning outputs for specificity and cross-reactivity (assays of Example 1)
T6 construct: Extracellular domain with C-terminal tag

Human FGFR2 IIIb D1-3 [4] = target: T1, Human FGFR2 IIIb D1-3; assay: SPR Biacore, similar assay conditions
Human FGFR2 IIIb D1-3 [5] = target: T1, Human FGFR2 IIIb D1-3; assay: SET or Biacore, IgG
Human FGFR2 IIIb D1-3 [6] = target: T1, Human FGFR2 IIIb D1-3; assay: SPR Biacore, method as Example 2
Protocol: as §1

[7] = target: T4, Cynomolgus monkey FGFR2 IIIb D1-3; assay: SPR Biacore, method as Example 2
Protocol: as §1

FGFR2 D2-D3 Construct = target: T5, FGFR2 D2-D3 Construct; assay: HDx-MS, antigen incubated 30 min with antibody
Protocol: The epitope mapping experiments described in this example were performed on a Waters HDx-MS platform, which includes a LEAP autosampler, nanoACQUITY UPLC System, and Synapt G2 mass spectrometer. The studies were automated by a LEAP autosampler operated by the LeapShell software, which performed initiation of the deuterium exchange reaction, reaction time control, quench reaction, injection onto the UPLC system and digestion time control. The Leap autosampler was equipped with two temperature controlled stacks maintained at 25° C. for HDx reaction and maintained at 2° C. for storage of protein and quench solution, respectively. Triplicate control experiments were carried out on antigen at a deuterium exchange time of 25 minutes. HDX was quenched with quenching buffer (6 M urea and 1 M TCEP pH=2.5). […] Triplicate experiments were carried out on antigen-mAb complex just as the control experiments except in these experiments the antigen in incubated for 30 min with the antibody at 25° C. prior to deuterium exchange.

complement factor Clq = target: T7, complement factor Clq (UniProt P02745 23-245; P02746 28-253; P02747 29-245); assay: ELISA, antibody coated in serial dilution, constant C1q; inferred from about 50% coating
T7 construct: bought (Sigma C1740); also called C1q; Complement component Clq (Sigma C1740)
Protocol: In additional studies, the ability of the unconjugated anti-FGFR2 antibodies to bind the complement factor Clq was evaluated. […] In order to monitor the amount of bound antibody analyte on the microtiterplate, this procedure was performed twice per plate utilizing the second dilution (in triplicate) for determining the coating efficacy of the analyte to the plate.

Human FGFR2 IIIb D1-3 [8] = target: T1, Human FGFR2 IIIb D1-3; assay: SPR Biacore, method as Example 2

T7 sequence (P02745 23-245 limits assumed, chain 1 of 3): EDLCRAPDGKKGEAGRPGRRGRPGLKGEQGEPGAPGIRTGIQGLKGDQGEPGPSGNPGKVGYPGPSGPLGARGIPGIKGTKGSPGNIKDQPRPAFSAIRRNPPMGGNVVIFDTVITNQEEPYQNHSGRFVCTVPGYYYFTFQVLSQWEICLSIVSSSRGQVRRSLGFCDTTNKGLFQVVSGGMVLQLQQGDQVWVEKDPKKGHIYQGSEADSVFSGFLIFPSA
T7 sequence (P02746 28-253 limits assumed, chain 2 of 3): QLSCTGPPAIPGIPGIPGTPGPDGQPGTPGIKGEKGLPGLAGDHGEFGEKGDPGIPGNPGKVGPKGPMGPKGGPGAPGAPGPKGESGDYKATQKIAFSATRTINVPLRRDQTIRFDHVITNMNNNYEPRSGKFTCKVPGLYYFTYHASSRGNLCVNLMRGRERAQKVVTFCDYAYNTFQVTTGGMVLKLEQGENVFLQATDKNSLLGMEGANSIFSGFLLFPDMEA
T7 sequence (P02747 29-245 limits assumed, chain 3 of 3): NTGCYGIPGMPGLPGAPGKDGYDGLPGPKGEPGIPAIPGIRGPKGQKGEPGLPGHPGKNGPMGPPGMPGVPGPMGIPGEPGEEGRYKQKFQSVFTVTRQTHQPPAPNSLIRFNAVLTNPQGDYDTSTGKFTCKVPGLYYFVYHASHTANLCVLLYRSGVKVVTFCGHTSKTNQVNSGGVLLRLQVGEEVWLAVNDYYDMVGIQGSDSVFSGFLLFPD

Row | Binder | Kd (Human FGFR2 IIIb D1-3 [1]) | Kd (Mouse FGFR2 IIIb D1-3) | Kd (Human FGFR2 IIIb D1-3 [2]) | Kd (Rat FGFR2 IIIb D1-3) | Kd [3] | other results
1 | B1 | 3.3 nM | 130 nM | 26 nM | 140 nM | 7.3 nM | –
2 | B2 | 5.1 nM | 7.7 nM | 5.1 nM | 9.7 nM | 7.4 nM | binding result (Human FGFR4 ECD): binds
3 | B3 | – | – | – | – | – | Kd (Human FGFR2 IIIb D1-3 [4]): 9 nM
4 | B4 | 15 nM | 15 nM | 15 nM | 16 nM | 5.6 nM | binding result (Human FGFR4 ECD): binds
5 | B5 | 2.7 nM | 3.1 nM | 2.7 nM | 5.1 nM | 2.4 nM | –
6 | B6 | – | – | – | – | – | Kd (Human FGFR2 IIIb D1-3 [5]): 0.11 nM
7 | B7 | 2 nM | – | 19 nM | – | 16 nM | Kd (Human FGFR2 IIIb D1-3 [6]): 2 nM; Kd [7]: 9 nM; binding result (FGFR2 D2-D3 Construct): binds; C1q binding capacity against the other antibodies (complement factor Clq): ~2 fold
8 | B8 | – | – | – | – | – | Kd (Human FGFR2 IIIb D1-3 [8]): 3.1 nM
